We go through three molecules from patent US20250277030A1 (Zymeworks, published 2025).

Test [1] deals with T1, human sodium-dependent phosphate transporter 2B (NaPi2b) (human, UniProt O95436 1-690).
T1 construct: UniProt ID is given as 095436 [sic]; also called hNaPi2b; Hu NaPi2b
T1 sequence: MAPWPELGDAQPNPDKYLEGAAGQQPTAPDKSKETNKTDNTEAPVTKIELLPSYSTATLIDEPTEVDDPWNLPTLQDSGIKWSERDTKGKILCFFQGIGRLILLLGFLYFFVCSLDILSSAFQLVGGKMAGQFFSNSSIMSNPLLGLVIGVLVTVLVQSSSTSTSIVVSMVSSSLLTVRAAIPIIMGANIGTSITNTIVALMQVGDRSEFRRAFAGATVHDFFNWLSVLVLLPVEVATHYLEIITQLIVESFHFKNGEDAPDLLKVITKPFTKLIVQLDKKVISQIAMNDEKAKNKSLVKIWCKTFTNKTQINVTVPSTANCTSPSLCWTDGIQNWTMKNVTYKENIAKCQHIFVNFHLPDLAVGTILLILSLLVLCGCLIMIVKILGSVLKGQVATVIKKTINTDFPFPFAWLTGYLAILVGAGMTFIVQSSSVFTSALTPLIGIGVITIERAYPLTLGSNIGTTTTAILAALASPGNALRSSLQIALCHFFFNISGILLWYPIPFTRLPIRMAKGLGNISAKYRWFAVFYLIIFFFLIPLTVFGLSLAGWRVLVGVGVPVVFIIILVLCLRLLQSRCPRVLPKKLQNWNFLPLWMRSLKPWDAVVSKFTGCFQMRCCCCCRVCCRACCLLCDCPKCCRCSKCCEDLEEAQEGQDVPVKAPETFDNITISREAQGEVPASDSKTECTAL
Briefly: flow cytometry on TOV-21G cells (endogenous NaPi2b), 24 h at 4 C, anti-human IgG Fc AF647 detection. How it is done:
(§1) Briefly, cells were seeded at 50,000 cells/well in conical-bottom 96-well plates and treated with test antibody for 24 hours at 4° C. to prevent internalization. […] Following incubation, cells were washed and stained with anti-Human IgG Fc AF647 conjugate (Jackson Immuno Research Labs, West Grove, PA; Cat. No. 109-605-098) at 4° C. for 30 min. Following incubation and washing, fluorescence was detected by flow cytometry on a BD LSRFortessa™ Cell Analyzer (BD Biosciences, Franklin Lake, NJ) with 1,000 minimum events collected per well. The AF647/APC-A GeoMean (fluorescence signal geometric mean, proportional to anti-Human AF647 binding) was calculated for the live cell population using FlowJo™ Version 10.8.1 (BD Biosciences, Franklin Lake, NJ) and plotted for each test antibody using GraphPad Prism Version 9 (GraphPad Software, San Diego, CA).
(§2) The ability of the humanized antibody variants v38591 and v29456 to bind to NaPi2b expressed on cells was assessed on endogenous NaPi2b-expressing tumor cell lines IGROV-1 (ovarian adenocarcinoma) and TOV-21G (ovarian carcinoma) by flow cytometry.
(§3) Cellular binding was performed according to methods described in Example 13.
On the technique in general: Flow cytometry measures light scatter and fluorescence of single cells or particles in a stream.

In test [2] the target is T2, cynomolgus monkey NaPi2b (cynomolgus monkey, UniProt O95436 1-690 (human entry)).
T2 construct: Transiently expressed on HEK293-6e cells; also called Cyno NaPi2b
T2 chain: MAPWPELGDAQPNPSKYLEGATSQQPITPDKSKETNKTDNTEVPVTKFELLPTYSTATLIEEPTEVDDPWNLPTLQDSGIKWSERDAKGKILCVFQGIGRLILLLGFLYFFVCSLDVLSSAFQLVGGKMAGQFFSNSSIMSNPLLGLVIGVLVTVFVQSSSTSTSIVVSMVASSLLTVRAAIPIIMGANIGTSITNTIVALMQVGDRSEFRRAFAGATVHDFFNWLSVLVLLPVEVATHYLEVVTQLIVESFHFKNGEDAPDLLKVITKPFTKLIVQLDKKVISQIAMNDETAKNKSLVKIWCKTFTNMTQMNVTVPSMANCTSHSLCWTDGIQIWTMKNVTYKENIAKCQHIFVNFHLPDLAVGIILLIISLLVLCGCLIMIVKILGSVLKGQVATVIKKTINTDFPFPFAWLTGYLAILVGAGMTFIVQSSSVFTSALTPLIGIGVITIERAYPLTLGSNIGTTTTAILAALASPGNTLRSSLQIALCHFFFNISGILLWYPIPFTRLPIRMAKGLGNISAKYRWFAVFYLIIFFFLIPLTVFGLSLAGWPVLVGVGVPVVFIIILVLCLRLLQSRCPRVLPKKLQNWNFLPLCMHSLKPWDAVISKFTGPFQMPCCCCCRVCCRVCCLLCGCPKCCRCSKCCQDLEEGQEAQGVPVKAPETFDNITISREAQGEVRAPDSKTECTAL
Description: flow cytometry, HEK293-6e cells transfected with cynomolgus NaPi2b. How it is done:
(§4) The binding cross-reactivity of humanized antibody variant v29456 to human, cynomolgus and mouse NaPi2b was assessed by flow cytometry using HEK293-6e transfected cells.
(§5) Briefly, HEK293-6e cells were transfected for ˜24 hours to transiently express human NaPi2b, cynomolgus or mouse NaPi2b, at 1 μg of DNA per 1 million cells. Following transfection, 50,000 cells per well were seeded in V-bottom 96-well plates and incubated with 200 nM of primary antibody for 18-24 hours at 4° C. to prevent internalization. Post-incubation, cells were washed and stained with anti-Human IgG Fc AF647 conjugate (Jackson Immuno Research Labs, West Grove, PA, Cat. No. 109-605-098, Lot. No. 124868) at 4° C. for 1 hour. Following staining and washing, fluorescence was detected by flow cytometry on BD LSRFortessa™ Cell Analyzer (BD Biosciences, Franklin Lake, NJ) with 10,000 minimum events collected per well. The AF647/APC-A GeoMean (fluorescence signal geometric mean, proportional to anti-Human AF647 binding) was calculated for the live singlet cell population for each primary antibody using FlowJo™ v8 software (BD Biosciences, Franklin Lake, NJ). The Bmax and Kd of each primary antibody were calculated using GraphPad Prism Version 9 (GraphPad Software, San Diego, CA)

Test [3] concerns the target T1, human sodium-dependent phosphate …. Briefly: flow cytometry, HEK293-6e cells transfected with human NaPi2b; apparent Kd. The method, then:
as §4, §5

For test [4] the target is unchanged. Briefly: flow cytometry, HEK293-6e cells transfected with human NaPi2b. How it is done: as §4, §5
For test [5] the target is unchanged. Briefly: flow cytometry on IGROV-1 cells (endogenous NaPi2b), 24 h at 4 C, anti-human IgG Fc AF647 detection. How it is done: as §1, §2, §3
The target in test [6] is T2, cynomolgus monkey NaPi2b. Description: flow cytometry, HEK293-6e cells transfected with cynomolgus NaPi2b; apparent Kd. The method, then:
as §4, §5

Test [7] has as its target T1, human sodium-dependent phosphate …. Briefly: flow cytometry, HEK293-6e cells transfected with human NaPi2b; apparent Kd. The method, then: The binding cross-reactivity of humanized antibody variant v38591 to human NaPi2b, NaPi2a, and NaPi2c was assessed by flow cytometry using HEK293-6e transfected cells.
Following transfection, cells were seeded at 50,000 cells/well in conical-bottom 96-well plates and treated with test antibody for 24 hours at 4° C. to prevent internalization. Following incubation, cells were washed and stained with anti-Human IgG Fc AF647 conjugate (Jackson Immuno Research Labs, West Grove, PA; Cat. No. 109-605-098) or anti-Rabbit IgG F(ab″)2 AF647 conjugate (Jackson Immuno Research Labs, West Grove, PA; Cat. No. 111-605-047). Following incubation and washing, fluorescence was detected by flow cytometry on a BD LSRFortessa™ Cell Analyzer (BD Biosciences, Franklin Lake, NJ) with 1,000 minimum events collected per well. The AF647/APC-A GeoMean (fluorescence signal geometric mean, proportional to anti-Human AF647 binding) was calculated for the live cell population using FlowJo™ Version 10.8.1 (BD Biosciences, Franklin Lake, NJ) and plotted for each test antibody using GraphPad Prism Version 9 (GraphPad Software, San Diego, CA).
This is another data set of the same source.

For test [8] the target is unchanged. Description: flow cytometry, IGROV-1 cells (endogenous NaPi2b); apparent Kd. How it is done: as §1, §2, §3
Test [9] has the same target. Briefly: flow cytometry, TOV-21G cells (endogenous NaPi2b); apparent Kd. How it is done:
as §1, §2, §3

Test [10] has the same target. Description: flow cytometry, IGROV-1 cells (endogenous NaPi2b), 24 h at 4 °C; apparent Kd. The method, then: (§6) IGROV-1 cells express endogenous NaPi2b at a high level.
as §1

The target is the same in test [11]. Description: flow cytometry, IGROV-1 cells (endogenous NaPi2b), 24 h at 4 °C. How it is done: as §6, §1
The target is the same in test [12]. Briefly: flow cytometry on IGROV-1 cells (endogenous NaPi2b), 24 h at 4 C, anti-human IgG Fc AF647 detection. The method, then:
as §6, §1
The source holds these as a separate data set.

For test [13] the target is unchanged. Briefly: KinExA, IGROV-1 cells (endogenous NaPi2b) as titrant, monovalent antibody constant at 50 and 500 pM, N-curve analysis. The method, then:
The cell-binding assay was set up using the antibody constructs or variants as constant binding partner at two different concentrations of 50 pM and 500 pM. For the titration curve with antibody variants fixed at 50 pM, at least 10 million IGROV-1 cells were used as titrant. For the titration curve with antibody variants fixed at 500 pM, at least 5 million cells were used as titrant. The antibody variants and cells were mixed in PBS pH 7.4, 1 mg/mL BSA, 0.2% NaN₃ and incubated at 4° C. for 7 days with gentle rotation until equilibrium was reached. After incubation, the mixture of antibody variants and cells was centrifuged to separate the cells from the unbound free antibody variants. The free antibody variants were loaded onto the KinExA 3200 (Sapidyne, Boise, Idaho) with biotinylated—anti-human IgG PMMA as solid phase and 0.5 μg/mL of Alexa 647 goat anti-human IgG (Jackson ImmunoResearch, West Grove, PA) as detection antibody.
N-curve analysis was used to calculate the affinity and receptor expression level with the concentrations of antibody variant as reference point.
(In general: Kinetic exclusion samples the free partner from a solution-phase mixture.)

B1: v18993, reference anti-NaPi2b antibody lifastuzumab (antibody, human IgG1, kappa)
heavy 1: GEVQLVESGGGLVQPGGSLRLSCAASGFSFSDFAMSWVRQAPGKGLEWVATIGRVAFHTYYPDSMKGRFTISRDNSKNTLYLQMNSLRAEDTAVYYCARHRGFDVGHFDFWGQGTLVTVSSASTKGPSVFPLAPSSKSTSGGTAALGCLVKDYFPEPVTVSWNSGALTSGVHTFPAVLQSSGLYSLSSVVTVPSSSLGTQTYICNVNHKPSNTKVDKKVEPKSCDKTHTCPPCPAPELLGGPSVFLFPPKPKDTLMISRTPEVTCVVVDVSHEDPEVKFNWYVDGVEVHNAKTKPREEQYNSTYRVVSVLTVLHQDWLNGKEYKCKVSNKALPAPIEKTISKAKGQPREPQVYVYPPSRDELTKNQVSLTCLVKGFYPSDIAVEWESNGQPENNYKTTPPVLDSDGSFALVSKLTVDKSRWQQGNVFSCSVMHEALHNHYTQKSLSLSPG
heavy 2: not shown
light: GDIQMTQSPSSLSASVGDRVTITCRSSETLVHSSGNTYLEWYQQKPGKAPKLLIYRVSNRFSGVPSRFSGSGSGTDFTLTISSLQPEDFATYYCFQGSFNPLTFGQGTKVEIKRTVAAPSVFIFPPSDEQLKSGTASVVCLLNNFYPREAKVQWKVDNALQSGNSQESVTEQDSKDSTYSLSSTLTLSKADYEKHKVYACEVTHQGLSSPVTKSFNRGEC
notes: Two different heavy chain clones (CL_#11677, CL_#11678)
The term EC50 (read off the curve) denotes the concentration giving half of the maximal effect. With B1, the “EC50 (read off the curve)” value in [1] was approximately 0.7 nM; in test [5] it was approximately 0.8 nM. Also, the “Bmax (APC-A GeoMean)” value worked out at 1560 APC-A GeoMean with cynomolgus monkey NaPi2b [2] and 1610 APC-A GeoMean in [4]. Also, the Kd in test [3] was 1.22 nM; with cynomolgus monkey NaPi2b [6], 6.27 nM; in [7], 5.76 nM; in test [8], 0.81 nM; in test [9], 0.67 nM.

B2: v23855, parental mouse-human chimeric anti-NaPi2b IgG1/kappa antibody (antibody, V domains shown)
VH: QAYLQQSGAELVRPGASVKMSCKASGFTFTSYNVHWVKQTPRQGLEWIAAISPGNGDLSYNQRFKDKATLTVDRSSSTAYMQLSGLTSEDSAVYFCARGRTGMGAVDYWGQGTSVTVSS
VL: DVQMTQTASSLSASLGDRVTISCRASQDVYSYLNWYQQKPHGTVKLLIYYTSRLQSGVPSRFTGSGSGTDYSLTISNLEPEDIATYYCQQYNIFPWTFGGGTKLEIKR
notes: Full-size antibody: mouse VH/VL appended to human IGHG1*01 CH1-hinge-CH2-CH3 (ends at G446) and IGKC*01; also called parental chimeric
As for B2, the Kd in [10] was determined as 0.84 nM. Further, in test [11], the “Bmax (MFI)” value was determined as 43700 MFI. Besides, the “EC50 (read off the curve)” value in [12] was approximately 0.8 nM.

B3: v29814, monovalent format of parental chimeric variant 23855 (antibody, V domains shown)
VH: B2 VH
VL: DVQMTQTASSLSASLGDRVTISCRASQDVYSYLNWYQQKPHGTVKLLIYYTSRLQSGVPSRFTGSGSGTDYSLTISNLEPEDIATYYCQQYNIFPWTFGGGTKLEIK
notes: Only said to be the monovalent format of v23855; it is captured and detected with anti-human IgG; also called v29814 (parental chimeric)
Turning to B3, the Kd in [13] stood at 0.15 nM.
